The values below come from US20130122005A1 (published 2013).

Holding throughout (experiment): cell-based or functional assay
Assay [1] deals with T1, human IGF-2 (human, UniProt P01344 25-91).
For assay [2], the target named is T2, human IGF-1 (human, UniProt P05019 49-118).
Assay [3] deals with T1, human IGF-2. The source holds these as a separate data set.
Assay [4] has as its target T1, human IGF-2. This is another data set of the same source.
In assay [5] the target is T2, human IGF-1. The source holds these as a separate data set.

T2 sequence (P05019 49-118): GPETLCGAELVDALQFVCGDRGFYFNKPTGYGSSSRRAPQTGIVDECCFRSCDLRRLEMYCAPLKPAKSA
T1 sequence (P01344 25-91 limits assumed): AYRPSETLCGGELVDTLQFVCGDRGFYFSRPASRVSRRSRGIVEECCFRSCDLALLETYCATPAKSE

B1: antibody 60814 (antibody, human IgG1, lambda, V domains shown)
VH: QVELVESGGGLVQPGGSLRLSCAASGFTFSNYWMHWVRQAPGKGLEWVSGISGWSSWTYYADSVKGRFTISRDNSKNTLYLQMNSLRAEDTAVYYCARFGIDAYTKVYFDYWGQGTLVTVSS
VL: DIELTQPPSVSVAPGQTARISCSGDNIPLKYVSWYQQKPGQAPVLVIHDDNKRPSGIPERFSGSNSGNTATLTISGTQAEDEADYYCSSWDTLDIFNVFGGGTKLTVLG
Regarding B1, in the assay with human IGF-2 [1], the “IC50, IGF-2 induced COLO 205 cell proliferation” value amounted to 0.576 µg/mL and the “IC50, IGF-2 induced MCF7 cell proliferation” value amounted to 0.0782 µg/mL. In addition, in the assay with human IGF-1 [2], the “IC50, IGF-1 induced COLO-205 cell proliferation” value came out at 0.135 µg/mL and the “IC50, IGF-1 induced MCF7 cell proliferation” value is 0.0241 µg/mL.

B2: antibody 60819 (antibody, human IgG1, lambda, V domains shown)
VH: QVELVESGGGLVQPGGSLRLSCAASGFTFSNYWMHWVRQAPGKGLEWVSGISGWSSWTYYADSVKGRFTISRDNSKNTLYLQMNSLRAEDTAVYYCARFGIDAYTKVYFDYWGQGTLVTVSS
VL: DIELTQPPSVSVAPGQTARISCSGDNIPLKYVSWYQQKPGQAPVLVIHDDNKRPSGIPERFSGSNSGNTATLTISGTQAEDEADYYCQSYDYFPKFVVFGGGTKLTVLG
Regarding B2, in the assay with human IGF-2 [1], the “IC50, IGF-2 induced COLO 205 cell proliferation” value stood at 0.101 µg/mL and the “IC50, IGF-2 induced MCF7 cell proliferation” value is 0.0408 µg/mL. For the same molecule, in the assay with human IGF-1 [2], the “IC50, IGF-1 induced COLO-205 cell proliferation” value was 0.217 µg/mL and the “IC50, IGF-1 induced MCF7 cell proliferation” value was determined as 0.054 µg/mL.

B3: antibody 60833 (antibody, human IgG1, lambda, V domains shown)
VH: QVELVESGGGLVQPGGSLRLSCAASGFTFTSYWMSWVRQAPGKGLELVSSITSYGSFTYYADSVKGRFTISRDNSKNTLYLQMNSLRAEDTAVYYCARNMYTHFDSWGQGTLVTVSS
VL: DIVLTQPPSVSGAPGQRVTISCSGSSSNIGSNSVSWYQQLPGTAPKLLIYDNSKRPSGVPDRFSGSKSGTSASLAITGLQSEDEADYYCQSRDTYGYYWVFGGGTKLTVLG
B3: in the assay with human IGF-2 [1], the “IC50, IGF-2 induced COLO 205 cell proliferation” value turned out to be 0.632 µg/mL and the “IC50, IGF-2 induced MCF7 cell proliferation” value was 0.0812 µg/mL. Moreover, in the assay with human IGF-1 [2], the “IC50, IGF-1 induced COLO-205 cell proliferation” value amounted to 0.165 µg/mL and the “IC50, IGF-1 induced MCF7 cell proliferation” value turned out to be 0.0386 µg/mL. Further, the “IC50, IGF-2 (100 ng/mL) induced IR-A phosphorylation, cell-based ELISA” value with human IGF-2 [3] was determined as 0.82 µg/mL. Moreover, in the assay with human IGF-2 [4], the “IC50, IGF-2 (100 ng/mL) induced IGF-1R phosphorylation, cell-based ELISA” value came to 1.12 µg/mL. The “IC50, IGF-1 (20 ng/mL) induced IGF-1R phosphorylation, cell-based ELISA” value with human IGF-1 [5] was 0.09 µg/mL.
